In US20250163136A1 (FRAUNHOFER GESELLSCHAFT ZUR F RDERUNG DER ANGEWANDTEN …, published 2025):
Numbered stars: 1 amine (or outer) side, 2 acyl side, 3 side chain; on linkers, the order of the positions; unused ones are H or OH. Square brackets hold non-standard residues; d marks the D form. * marks the point of attachment. Biotin = O=C1N[C@H]2[C@H](CS[C@H]2CCCCC(=O)*)N1; βAsp = O=C(O)[C@H](CC(=O)[*:2])N[*:1]; PEG = not defined here

T1: TTR(35-43)-PEG-Biotin (human, reading uncertain)
T1 construct: also called non-modified peptide TTR(35-43)
T1 peptide: {Biotin-PEG}-KAADDTWEP-NH2

T2: isoD38-TTR(35-43)-PEG-Biotin (human, reading uncertain)
T2 construct: KAAXDTWEP; also called isoaspartate-containing TTR(35-43)-peptide
T2 peptide: {Biotin-PEG}-KAA[βAsp]DTWEP-NH2


Columns and labels:
[1] = target: T1, TTR(35-43)-PEG-Biotin; assay: SPR, BIAcore 3000, 25 °C; antibody captured on goat anti-mouse IgG (CM5 chip), peptide injected (multicycle kinetics, 1 µM to 200 µM)
Protocol: (§1) Antibody binding kinetics to TTR(35-43)-PEG-Biotin (SEQ ID NO: 5) and isoD38-TTR(35-43)-PEG-Biotin (SEQ ID NO: 6) were analyzed by using SPR on a BIAcore 3000 device at 25° C. For this purpose, the surface of a CM5 sensor chip (Cytiva) was modified with a goat anti-mouse antibody using NHS/EDC chemistry. To immobilize the anti-mouse IgG, the carboxymethylated dextran surface of the sensor chip was activated by mixing 0.1 M N-hydroxysuccinimide (NHS) with 0.4 M N-ethyl-N′-(dimethylaminopropyl) carbodiimide hydrochloride (EDC) 1:1. EDC/NHS was applied to the sensor chip with a flow rate of 20 μL/min for 7 minutes. Goat anti-mouse IgG was diluted to 50 μg/mL in 10 mM sodium acetate, pH 5.5, and injected for 2×4 minutes contact time with a flow rate of 30 μL/min. Deactivation was done by applying 1 M ethanolamine pH 8.5 with a flow rate of 10 μL/min for 2×7 minutes contact time. About 20000 RU of the goat anti-mouse antibody were immobilized onto the chip surface.

[2] = target: T2, isoD38-TTR(35-43)-PEG-Biotin; assay: SPR, BIAcore 3000, 25 °C; antibody captured on goat anti-mouse IgG (CM5 chip), peptide injected (multicycle kinetics, 10 nM to 100 µM)
Protocol: as §1

[3] = target: T3, aggregated Aβ(1-42) with confirmed isoAsp-content (isoD7-Aβ(1-42)) (X at position 7 is L-isoAsp); assay: dot blot
T3 construct: Aggregated amyloid fibrils; dot blot lanes 8 and 9 (with m11); also called isoD7-AB; aggregated Aβ1-42 (verified isoD content)
T3 sequence (peptide, as listed by the source): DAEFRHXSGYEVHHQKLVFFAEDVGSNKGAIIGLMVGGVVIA
Protocol: (§2) 0.5 μg of recombinantly expressed TTR proteins (TTRwt (SEQ ID NO: 1), TTR-V30M (SEQ ID NO: 7), or TTR-V122I (SEQ ID NO: 8)), ATTR fibrils or 0.5 μg of either freshly dissolved Aβ(1-42) (SEQ ID NO: 9) or aggregated Aβ(1-42) with confirmed isoAsp-content (SEQ ID NO: 10) were spotted on nitrocellulose membranes. Membranes were blocked for 1 hour in blocking solution (5% (w/v) milk powder in TBS+0.05% (v/v) Tween-20 (Carl Roth)). […] Alkaline phosphatase-conjugated, anti-mouse or rabbit IgG antibodies (abeam) in combination with chromogenic substrates BCIP and NBT (Carl Roth) were subsequently used for detection.

[4] = target: T4, freshly dissolved Aβ(1-42); assay: dot blot
T4 construct: Dot blot lanes 8 and 9 (with m12); also called monomeric peptides of Aβ
T4 sequence (peptide, as listed by the source): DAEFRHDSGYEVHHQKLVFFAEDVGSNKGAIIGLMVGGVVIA
Protocol: as §2

[5] = target: T1, TTR(35-43)-PEG-Biotin; assay: SPR, BIAcore 3000, 25 °C; antibody captured on goat anti-mouse IgG (CM5 chip), peptide injected (five consecutive injections, 512 nM to 131 µM)
Protocol: as §1

[6] = target: T2, isoD38-TTR(35-43)-PEG-Biotin; assay: SPR, BIAcore 3000, 25 °C; antibody captured on goat anti-mouse IgG (CM5 chip), peptide injected (five consecutive injections, 2 nM to 512 nM)
Protocol: as §1

Kd [1] [nM]	Kd [2] [nM]	Kd [5] [nM]	Kd [6] [nM]	Binder	binding result [3]	binding result [4]
29000	124	–	–	monoclonal antibody 4D4 (antibody, V domains shown, also called isoD38-TTR-specific antibody 4D4; TTR mAb 4D4) VH: QVQLQQSGAELMKPGASVKISCKAPGNTFSSRWIEWVKERPGHGLEWIGEIFPGNGNTNYNEKFKGKATFTADTSSNTAYIQFSSLASEDSGVYYCVSEDYWGQGTLVTVSS VL: DIQMTQSPASLSASVGETVTITCRTSGNIRNSLAWYRQKQGKSPQLLVFNGKTLADGVPSRFSGSGSGTQYSLKINSLQPEDLGTYYCQHFWNIPFTFGSGTKLEIKR	no binding (tested: 0.5 µg peptide spotted; antibody 1 µg/mL)	no binding (tested: 0.5 µg peptide spotted; antibody 1 µg/mL)
–	–	719	1.55	monoclonal antibody 2F2 (antibody, V domains shown, also called isoD38-TTR-specific antibody 2F2; TTR mAb 2F2) VH: DVQLVESGGGLVQPGGSRKLSCAASGFTFSSFAMHWVRQAPDKGLEWVAFISSGSNTIYYADTVKGRFTVSRDNPKNTLFLQMTSLRSEDTAMYYCASNSYYGMDYWGQGTSVTVSS VL: NIMMTQSPSSLAVSAGEKVTMSCKSSQSVLYSSNQKNYLAWYQQKPGQSPKLLIYWASTRESGVPDRFTGSGSGTDFTLTISSVQAEDLAVYYCHQYLSSRTFGAGTKLELKR	no binding (tested: 0.5 µg peptide spotted; antibody 1 µg/mL)	no binding (tested: 0.5 µg peptide spotted; antibody 1 µg/mL)
